Source: patent publication US11118167B2, “Enzyme-mediated depletion of adenosine and/or methylthioadenosine” (BOARD OF REGENTS, THE UNIVERSITY OF TEXAS SYSTEM, priority 2017, dated 2021)

Assays:
[1] = Kinetic stability of purified enzymes in phosphate buffer; type: physicochemical
Experimental: The kinetic stabilities of purified hs-MTAP and se-MTAN enzymes were determined by incubating the enzymes in a 100 mM phosphate buffer (pH 7.4) at 37° C. Over the course of four days, aliquots of hs-MTAP and se-MTAN were withdrawn from the incubations and assessed for their ability to degrade MTA as described in Example 5. The resulting data were processed and fitted to an exponential equation to determine the decay rate.

murine T cells = assay: Restoring proliferation of murine T cells treated with MTA (CellTrace Violet, FACS); type: cell-based, mouse; details: 5 μM enzyme, CD8+ and CD4+ T cells
Text: Spleens dissected from healthy 8-week-old C57BL6 mice were crushed in a 70 μm Falcon™ Cell Strainer to obtain single cells, which were further isolated using the EasySep™ Mouse T-Cell Isolation Kit (Stem Cell). Isolated T cells were brought to a concentration of 1×10^6 cells/mL in PBS and were processed according to the CellTrace™ Violet Cell Proliferation Kit protocol (Thermo Fisher), which measures proliferation as a function of dye dilution with each cell-division. The labeled cells were then re-counted and brought to 1×10^6 cells/mL of RPMI media and 1 mL/well were plated, after which anti-CD3/CD28 beads were added to activate the T cells (Dynabeads® Mouse T-Activator CD3/CD28 for T-Cell Expansion and Activation from Thermo Fisher) according to the protocol from the kit. Subsequently, three different MTA concentrations, 0 μM MTA, 125 μM MTA, or 250 μM MTA were added to the plated cells. Finally, MTAP and MTAN were added to the appropriate wells at a final concentration of 5 μM enzyme, and PBS was added to the control wells. After incubation for five days, cells were then collected and stained with anti-CD3, anti-CD4, anti-CD8, and Fixable Viability Dye eFluor™ 520 and analyzed by FACS. The antibodies used were all from Biolegend: PE anti-mouse CD3 (17A2), APC anti-mouse CD4 (GK1.5), APC/Fire™ 750 anti-mouse CD8a (53-6.7), and Brilliant Violet 421™ anti-mouse Ki-67 (16A8). […]

WT B16-F10 tumors = assay: Efficacy in the B16 WT melanoma tumor model; type: in vivo, mouse; details: C57/BL6 mice, 50 mg/kg three times/week peri-tumoral, 2 weeks
Experimental: (§1) Two cohorts each of C57/BL6 mice were subcutaneously inoculated with either 50,000 WT B16-F10 or B16-F10 MTAP^−/− cells. When the tumors reached a mean size of 55 mm^3 the mice were treated with either vehicle (PBS) or 50 mg/kg of PEG-MTAP three times/week by peri-tumoral injection for 2 weeks. As expected from a tumor highly expressing MTAP, it was observed that PEG-MTAP treatment had no effect on the growth of WT B16-F10 tumors (FIG. 8A).

[2] = tested on: B16-F10 MTAP−/− allografts; assay: Efficacy in the B16-MTAP−/− melanoma tumor model; type: in vivo, mouse; details: 50 mg/kg three times/week peri-tumoral, 2 weeks
Text: As B16 is a very well characterized cell line in terms of metabolism and its interaction with host immune systems, it was hypothesized that an MTAP deletion in this strain would create a relevant model to evaluate the consequences of MTA accumulation both metabolically to the tumor and upon the host immune system. Cas9 protein (TrueCut™ Cas9 Protein v2) and synthetic single guide RNA purchased through ThermoFisher were transfected into B16-F10 WT cells using lypofectamine (Lipofectamine™ CRISPRMAX™ Cas9 Transfection Reagent). After two days of transfection, cells were plated using limited dilution method into ten 96-well plates. Plates were examined daily for single cell clones and after reaching confluency (10-14 days post transfection) clones were further expanded and analyzed for MTAP expression through Western blotting, and clones lacking MTAP expression were verified for gene disruption by cloning and sequencing.
as §1

B16-F10 MTAP−/− tumor = assay: Immune phenotype in the B16-MTAP−/− melanoma tumor model (FACS); type: in vivo, mouse; details: two doses, 24 hr post dose, vs vehicle
Experimental: Lymphocyte panels observed by FACS analyses from C57/BL6 mice bearing B16-F10 MTAP^−/− tumor samples were assessed after treatment with two doses of PEG-MTAP or vehicle (analyzed 24 hr post dose).

B1: se-MTAN: MTAN enzyme from Salmonella enterica (SEQ ID NO: 3), N-terminal His6 tag, expressed in E. coli (protein, listed as Salmonella enterica)
chain: MKIGIIGAMEEEVTLLRDKIDNRQTITLGGCEIYTGQLNGTEVALLKSGIGKVAAALGATLLLEHCKPDVIINTGSAGGLASTLKVGDIVVSDETRYHDADVTAFGYEYGQLPGCPAGFKADDKLIAAAESCIRELNLNAVRGLIVSGDAFINGSVGLAKIRHNFPDAVAVEMEATAIAHVCHNFNVPFVVVRAISDVADQQSHLSFDEFLAVAAKQSTLMVETLVQKLAHG
modifications: N-terminal His6 tag
half-life (T1/2) of activity ([1]; 100 mM phosphate buffer, pH 7.4, 37° C.): 56 h
reversal of the MTA effect on T cell proliferation and viability (murine T cells): completely reversed

B2: hs-MTAP: MTAP enzyme from Homo sapiens (SEQ ID NO: 1), N-terminal His6 tag, expressed in E. coli (protein, listed as Homo sapiens)
chain: MASGTTTTAVKIGIIGGTGLDDPEILEGRTEKYVDTPFGKPSDALILGKIKNVDCVLLARHGRQHTIMPSKVNYQANIWALKEEGCTHVIVTTACGSLREEIQPGDIVIIDQFIDRTTMRPQSFYDGSHSCARGVCHIPMAEPFCPKTREVLIETAKKLGLRCHSKGTMVTIEGPRFSSRAESFMFRTWGADVINMTTVPEVVLAKEAGICYASIAMATDYDCWKEHEEAVSVDRVLKTLKENANKAKSLLLTTIPQIGSTEWSETLHNLKNMAQFSVLLPRH
modifications: N-terminal His6 tag
half-life (T1/2) of activity ([1]; pH 7.4): 57 h
reversal of the MTA effect on T cell proliferation and viability (murine T cells): completely reversed

B3: PEG-hs-MTAP: hs-MTAP with surface lysine residues reacted with Methoxyl PEG Succinimidyl Carbonate 5000 MW (conjugate, UniProt Q13126 1-283, looked up)
S-methyl-5'-thioadenosine …: MASGTTTTAVKIGIIGGTGLDDPEILEGRTEKYVDTPFGKPSDALILGKIKNVDCVLLARHGRQHTIMPSKVNYQANIWALKEEGCTHVIVTTACGSLREEIQPGDIVIIDQFIDRTTMRPQSFYDGSHSCARGVCHIPMAEPFCPKTREVLIETAKKLGLRCHSKGTMVTIEGPRFSSRAESFMFRTWGADVINMTTVPEVVLAKEAGICYASIAMATDYDCWKEHEEAVSVDRVLKTLKENANKAKSLLLTTIPQIGSTEWSETLHNLKNMAQFSVLLPRH
modifications: PEG 5000
notes: hs-MTAP with surface lysine residues reacted with Methoxyl PEG Succinimidyl Carbonate 5000 MW
tumor growth (WT B16-F10 tumors): no effect
complete responses (CRs) in the treatment group ([2]; 3/7 CRs): 43%
tumor growth ([2]; C57/BL6 mice): drastically retarded tumor growth
percentage of CD4+ T cells (B16-F10 MTAP−/− tumor): large increases
percentage of NK1.1+ natural killer cells (B16-F10 MTAP−/− tumor): large increases
percentage of proliferating CD8+ Granzyme B+ T cells (B16-F10 MTAP−/− tumor): large increases
